Where no end group is shown, it is not given here. [ ]: non-standard residue; d: D form. FAM = FAM fluorescent label on the peptide N-terminus (the text does not expand the abbreviation); pS = N[C@@H](COP(=O)(O)O)C(=O)O
T1: RBM15 SPOC R834A (human, UniProt Q96T37 775-960, R834A)
T1 construct: SPOC domain of human RBM15, residues 775-960, with R834A; not shown: His6, N-terminal, cleaved
T1 sequence (looked up): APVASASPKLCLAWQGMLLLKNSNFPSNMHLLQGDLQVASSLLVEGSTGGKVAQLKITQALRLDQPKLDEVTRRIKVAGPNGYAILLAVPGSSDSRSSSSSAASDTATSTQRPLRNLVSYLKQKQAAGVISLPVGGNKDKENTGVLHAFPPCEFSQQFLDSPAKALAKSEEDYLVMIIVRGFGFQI

B1: 1×S5P CTD diheptapeptide (peptide)
peptide: {Atto‑488}-YSPT[pS]PSYSPTSPS
notes: also called 1×S5P CTD peptide; CTD pS5; source: lyophilized peptide, labeled with Atto-488 NHS ester, purified by reverse-phase HPLC
B2: WTAP peptide (first 19 N-terminal amino acids) phosphorylated at S14 (peptide, UniProt Q15007 1-19, looked up)
peptide: MTNEEPLPKKVRL[pS]ETDFK
notes: first 19 N-terminal amino acids of WTAP, with the LSETD motif; also called WTAP pS14

Assays:
[1] = biological target: T2, SHARP SPOC (3496–3664 aa) (human, UniProt Q96T58 3496-3664); assay: fluorescence polarisation; fluorescence anisotropy; 90 nM labelled peptide (Atto-488 on CTD peptides, FAM on NCoR and FMR1 peptides) titrated with increasing concentrations of SPOC domain; 20 °C; 25 mM Tris-Cl pH 7.4, 25 mM NaCl, 1 mM DTT; three independent dilution series; conditions: both partners purified
T2 construct: SPOC domain of human SHARP (SMRT/HDAC1 associated repressor protein, also known as SPEN), residues 3496-3664; also called SPOC domain of SHARP; SPEN SPOC; not shown: His6, N-terminal, cleaved

RBM15 SPOC R834A = biological target: T1, RBM15 SPOC R834A; assay: as above; conditions: both partners purified

Binder | Kd [1] | Kd (RBM15 SPOC R834A)
B1 | 23.8 ± 0.8 µM | 
{FAM}-REPAPLLSAQYETL[pS]DSDD (also: phosphoserine at S2436) [NCoR peptide phosphorylated at S2436] | 1.75 ± 0.04 µM | 
{FAM}-REPAPLLSAQYETLSDSDD [unphosphorylated NCoR peptide] | 13.6 ± 1.3 µM | 
B2 |  | 50.4 ± 1.1 µM
